Results from patent US20170088602A1 (Bristol-Myers Squibb, published 2017).

T1: human myostatin (mature, recombinant; R&D Systems) (human, UniProt O14793 267-375)
T1 construct: biotinylated in the mRNA display selection; also called GDF-8; mature myostatin
T1 sequence: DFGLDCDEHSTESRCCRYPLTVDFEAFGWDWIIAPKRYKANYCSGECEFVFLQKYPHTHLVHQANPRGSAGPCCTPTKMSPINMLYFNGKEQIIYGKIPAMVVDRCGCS

T2: human BMP-11 (GDF-11; R&D Systems) (human, UniProt O95390 299-407)
T2 sequence (looked up): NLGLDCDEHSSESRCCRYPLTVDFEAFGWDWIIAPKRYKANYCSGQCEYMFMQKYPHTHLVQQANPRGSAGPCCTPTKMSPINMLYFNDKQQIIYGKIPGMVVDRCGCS

T3: human Activin A (R&D Systems) (human, UniProt P08476 311-426)
T3 sequence (looked up): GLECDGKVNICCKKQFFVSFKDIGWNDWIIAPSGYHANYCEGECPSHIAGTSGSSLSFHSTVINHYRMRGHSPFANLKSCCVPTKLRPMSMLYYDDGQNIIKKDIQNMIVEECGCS


Legend:
[1] = target: T1, human myostatin (mature, recombinant; …); assay: competitive HTRF (1889E01/myostatin/ActRIIb-Fc sandwich)
Description: An HTRF assay was used to measure the binding affinities of anti-myostatin Adnectins to myostatin. […] The Eu-W 1024 labeled Streptavidin is used to bind biotinylated 1889E01. […] In the presence of a competitive Adnectin, the HTRF signal decreases.

[2] = target: T2, human BMP-11 (GDF-11; R&D Systems); assay: cell-based or functional assay
[3] = target: T3, human Activin A (R&D Systems); assay: cell-based or functional assay
[4] = target: T1, human myostatin (mature, recombinant; …); assay: cell-based or functional assay
[5] = target: T2, human BMP-11 (GDF-11; R&D Systems); assay: SPR format A, 25C
Description: (§1) Anti-human Fc antibody (Biacore/GE) was immobilized on a Biacore CM5 chip via NHS/EDC coupling according to the manufacturer's instructions. […] A concentration range of anti-myostatin Adnectin was applied across all flow cells in HBSP running buffer. Regeneration of the chip surface between cycles was accomplished with two 30 second pulses of 3M MgCl₂. Kinetic traces of reference-subtracted sensorgrams were fit to a 1:1 binding model using Biaevaluation software.

[6] = target: T1, human myostatin (mature, recombinant; …); assay: SPR format A, 25C
Description: as §1

[7] = target: T1, human myostatin (mature, recombinant; …); assay: cell-based or functional assay; remark: listed apart in the source
[8] = target: T1, human myostatin (mature, recombinant; …); assay: cell-based or functional assay; remark: listed apart in the source
[9] = target: T1, human myostatin (mature, recombinant; …); assay: competitive HTRF, alanine scan

IC50 [1]	ARE-luciferase IC50 [2]	ARE-luciferase IC50 [3]	ARE-luciferase IC50 [4]	Kd [5]	Kd [6]	pSmad2 IC50, 4-point [7]	Myostatin ARE-luc IC50 [8]	IC50 [9]	pSmad2 IC50, 12-point [7]	Binder
0.19 nM	0.14 nM	19 nM	0.03 nM	0.15 nM	0.15 nM					ATI-1275 [N-ethylmaleimide] (designed binder, N-ethylmaleimide on the Cys of the EGSGC tail, cysteine mutant of 2524_D09) MGVSDVPRDLEVVAATPTSLLISWYLPYPAHMNYYRITYGETGGNSPVQEFTVPGRGLTATISGLKPGVDYTITVYAVTLTKSQILHHRPISINYRTEGSGCHHHHHH
0.38 nM	1.18 nM	2000 nM	0.14 nM	0.14 nM	0.16 nM					ATI-1277 [N-ethylmaleimide] (designed binder, N-ethylmaleimide on the Cys of the EGSGC tail, cysteine mutant of 2525_D05) MGVSDVPRDLEVVAATPTSLLISWSLPYAGHLNYYRITYGETGGNSPVQEFTVPGRGVTATISGLKPGVDYTITVYAVTLTKSQLIHYMPISINYRTEGSGCHHHHHH
0.12 nM	0.5 nM	644 nM	0.06 nM	0.065 nM	0.057 nM					ATI-1267 [N-ethylmaleimide] (designed binder, N-ethylmaleimide on the Cys of the EGSGC tail, cysteine mutant of 2525_D02) MGVSDVPRDLEVVAATPTSLLISWTLPHAGRAHYYRITYGETGGNSPVQEFTVPGRGVTATISGLKPGVDYTITVYAVTVTTTSVILYKPISINYRTEGSGCHHHHHH
0.15 nM	13 nM	> 1000 nM	0.14 nM			0.27 nM	0.6 nM	0.3 nM		3116_A06 (designed binder, also called WT parent) MGVSDVPRDLEVVAATPTSLLISWSLPHQGKANYYRITYGETGGNSPVQEFTVPGRGVTATISGLKPGVDYTITVYAVTVTDTGYLKYKPISINYRTEIDKPSQHHHHHH
							2 nM	0.8 nM		3116_A06 K87A (designed binder) MGVSDVPRDLEVVAATPTSLLISWSLPHQGKANYYRITYGETGGNSPVQEFTVPGRGVTATISGLKPGVDYTITVYAVTVTDTGYLAYKPISINYRTEIDKPSQHHHHHH
							3.6 nM	2 nM		3116_A06 G84A (designed binder) MGVSDVPRDLEVVAATPTSLLISWSLPHQGKANYYRITYGETGGNSPVQEFTVPGRGVTATISGLKPGVDYTITVYAVTVTDTAYLKYKPISINYRTEIDKPSQHHHHHH
							1.6 nM	0.7 nM		3116_A06 K89A (designed binder) MGVSDVPRDLEVVAATPTSLLISWSLPHQGKANYYRITYGETGGNSPVQEFTVPGRGVTATISGLKPGVDYTITVYAVTVTDTGYLKYAPISINYRTEIDKPSQHHHHHH
							2.9 nM	0.8 nM		3116_A06 S25A (designed binder) MGVSDVPRDLEVVAATPTSLLISWALPHQGKANYYRITYGETGGNSPVQEFTVPGRGVTATISGLKPGVDYTITVYAVTVTDTGYLKYKPISINYRTEIDKPSQHHHHHH
							1.5 nM	0.7 nM		3116_A06 Q29A (designed binder) MGVSDVPRDLEVVAATPTSLLISWSLPHAGKANYYRITYGETGGNSPVQEFTVPGRGVTATISGLKPGVDYTITVYAVTVTDTGYLKYKPISINYRTEIDKPSQHHHHHH
							3.3 nM	1.6 nM		3116_A06 V58A (designed binder) MGVSDVPRDLEVVAATPTSLLISWSLPHQGKANYYRITYGETGGNSPVQEFTVPGRGATATISGLKPGVDYTITVYAVTVTDTGYLKYKPISINYRTEIDKPSQHHHHHH
							1.8 nM	0.8 nM		3116_A06 D82A (designed binder) MGVSDVPRDLEVVAATPTSLLISWSLPHQGKANYYRITYGETGGNSPVQEFTVPGRGVTATISGLKPGVDYTITVYAVTVTATGYLKYKPISINYRTEIDKPSQHHHHHH
							2.2 nM	0.6 nM		3116_A06 K31A (designed binder) MGVSDVPRDLEVVAATPTSLLISWSLPHQGAANYYRITYGETGGNSPVQEFTVPGRGVTATISGLKPGVDYTITVYAVTVTDTGYLKYKPISINYRTEIDKPSQHHHHHH
							1.8 nM	1.3 nM		3116_A06 T83A (designed binder) MGVSDVPRDLEVVAATPTSLLISWSLPHQGKANYYRITYGETGGNSPVQEFTVPGRGVTATISGLKPGVDYTITVYAVTVTDAGYLKYKPISINYRTEIDKPSQHHHHHH
							> 100 nM	> 100 nM		3116_A06 G55A (designed binder) MGVSDVPRDLEVVAATPTSLLISWSLPHQGKANYYRITYGETGGNSPVQEFTVPARGVTATISGLKPGVDYTITVYAVTVTDTGYLKYKPISINYRTEIDKPSQHHHHHH
							> 100 nM	> 100 nM		3116_A06 G57A (designed binder) MGVSDVPRDLEVVAATPTSLLISWSLPHQGKANYYRITYGETGGNSPVQEFTVPGRAVTATISGLKPGVDYTITVYAVTVTDTGYLKYKPISINYRTEIDKPSQHHHHHH
	0.55 nM	84 nM	0.06 nM	0.81 nM	0.64 nM				0.11 nM	2524_D09 (designed binder) MGVSDVPRDLEVVAATPTSLLISWYLPYPAHMNYYRITYGETGGNSPVQEFTVPGRGLTATISGLKPGVDYTITVYAVTLTKSQILHHRPISINYRTEIDKPSQHHHHHH
	7.3 nM	> 1000 nM	0.09 nM	0.87 nM	0.88 nM				0.13 nM	2524_H05 (designed binder) MGVSDVPRDLEVVAATPTSLLISWSLPYSGLANYYRITYGETGGNSPVQEFTVPGRGVTATISGLKPGVDYTITVYAVTLTHSNIIRYVPISINYRTEIDKPSQHHHHHH
	5.5 nM	> 400 nM	0.02 nM	2.25 nM	0.99 nM					2987_H07 (designed binder) MGVSDVPRDLEVVAATPTSLLISWTLPHAGRAHYYRITYGETGGNSPVQEFTVPGRGVTATISGLKPGVDYTITVYAVTVTTTKVIHYKPISINYRTEIDKPSQHHHHHH
	3.4 nM	> 1000 nM	0.13 nM	0.97 nM	0.79 nM				0.27 nM	2525_F07 (designed binder) MGVSDVPRDLEVVAATPTSLLISWSLPYAAHMNYYRITYGETGGNSPVQEFTVPGRGVTATISGLKPGVDYTITVYAVTLTRSQVIHYMPISINYRTEIDKPSQHHHHHH
	3.2 nM	73 nM	0.11 nM	1.58 nM	1.29 nM				0.14 nM	2525_B01 (designed binder) MGVSDVPRDLEVVAATPTSLLISWTLPNFGLINYYRITYGETGGNSPVQEFTVPGRGVTATISGLKPGVDYTITVYAVTITKSTIIIYKPISINYRTEIDKPSQHHHHHH
	1.1 nM	345 nM	0.05 nM	0.3 nM	0.24 nM				0.36 nM	2525_D02 (designed binder) MGVSDVPRDLEVVAATPTSLLISWTLPHAGRAHYYRITYGETGGNSPVQEFTVPGRGVTATISGLKPGVDYTITVYAVTVTTTSVILYKPISINYRTEIDKPSQHHHHHH
	1.6 nM	1000 nM	0.06 nM	0.45 nM	0.51 nM				0.13 nM	2522_C09 (designed binder) MGVSDVPRDLEVVAATPTSLLISWEVPRGLARYYRITYGETGGNSPVQEFTVLGRGSTATISGLKPGVDYTITVYAVTVYRDGPLLLAPISINYRTEIDKPSQHHHHHH
